Laboratory results taken from patent US6958236B2, “Control of gene expression in plants” (priority 2000, dated 2005).

Tested on: pCGS206 (luciferase reporter with response elements for the GAL4 DNA binding domain)
Test: Maize BMS cells bombarded with GAL4 luciferase reporter and receptor vector, GUS-normalized luciferase
Type: cell-based
Conditions: for Normalized Average (EtOH): unliganded background
Experimental: (§1) Maize BMS (Black Mexican Sweet) cultured cells are transfected with pCGS206 and pCGS208 by high velocity microprojectile bombardment. In addition, an expression plasmid containing the maize ubiquitin promoter driving the expression of β-glucuronidase (GUS) is added to the transfection to serve as an internal control to normalize against variations among the samples.
(§2) Transfections are treated and cell lysates are made essentially as described in U.S. Pat. No. 5,880,333. […] Both luciferase and GUS assays are performed with 20 μl of cell lysate for each assay using the Promega Luciferase Kit (Promega cat #E1500) and GUS-Light Kit (Tropix) respectively. Relative light units are determined using a Turner Designs TD 20/20 luminometer.
In addition to tebufenozide, methoxytebufenozide (“MethoxyTeb”) is also capable of inducing gene expression in maize BMS cells. Both pCGS206 and pCGS208 are transfected as described above and methoxytebufenozide is added in place of tebufenozide at 25 μM and 10 μM.
Maize BMS cells are transfected and assayed as in Example 12.
as §1, with “Transformation of maize suspension cells, chemical treatment, and reporter activity assays are performed as described in Example 12. Maize” for “Maize”, “pCGS206 (pBS-bz1TATA/intronLUC), pCGS203 (G(M)MV), pCGS672 (G(M)MC),” for “pCGS206”, “pCGS678 (G(M)MD)” for “pCGS208”
as §2, with “Maize BMS cells are bombarded with reporter vector pCGS206 and chimeric receptors and treated with tebufenozide essentially as described in Example 12. Transfections” for “Transfections”, “units (RLU)” for “units”

[1] = Example 24, Experiment 1, 20 μM Teb
[2] = Example 24, Experiment 1, BMS cells
[3] = Example 24, Experiment 2, 20 μM Teb
[4] = Example 24, Experiment 2, BMS cells
[5] = Example 26, + 10 μM Teb vs without
[6] = Example 26, BMS cells, reporter pCGS206, no ligand
[7] = Example 28, BMS cells, reporter pCGS206, no ligand, GUS-normalized

Molecule	average fold activation of the Manduca G(M)MV EcR (ubi/GAL4-MV) (maize BMS cells, methoxytebufenozide 25 μM and 10 μM) [fold]	Fold Induction with Teb Relative to Receptor with EtOH [1] [fold]	Fold Induction with Teb Relative to Reporter with EtOH [1] [fold]	Normalized Average (EtOH) [2]	Fold Induction with Teb Relative to Receptor with EtOH [3] [fold]	Fold Induction with Teb Relative to Reporter with EtOH [3] [fold]	Normalized Average (EtOH) [4]	Experiment #1 Luciferase (Example 26, + 10 μM Teb)	Experiment #2 Luciferase (Example 26, + 10 μM Teb)	Experiment #1 Fold Induction [5] [fold]	Experiment #2 Fold Induction [5] [fold]	Experiment #1 Luciferase [6]	Experiment #2 Luciferase [6]	Experiment #1 RLU [7] [RLU]	Experiment #2 RLU [7] [RLU]	average fold induction with tebufenozide (maize BMS cells, 10 μM tebufenozide, average of assays) [fold]	rank of fold induction among D+E domain combinations (Example 24, BMS cells, 20 μM Teb)
COc1cccc(C(=O)NN(C(=O)c2cc(C)cc(C)c2)C(C)(C)C)c1C [methoxytebufenozide, reference compound]	25																
G(M)MV: EcR chimera: GAL4 DNA binding domain, Manduca sexta D and E domains, VP16; SEQ ID NO:104-105 (protein, (1)..(3972) GAL4-Manduca EcR-VP16 fragment in pCGS202) MKLLSSIEQACDICRLKKLKCSKEKPKCAKCLKNNWECRYSPKTKRSPLTRAHLTEVESRLERLEQLFLLIFPREDLDMILKMDSLQDIKALLTGLFVQDNVNKDAVTDRLASVETDMPLTLRQHRISATSSSEESSNKGQRQLTVSTRMRPECVVPESTCKNKRREKEAQREKDKLPVSTTTVDDHMPAIMQCDPPPPEAARIHEVVPRFLTEKLMEQNRLKNVTPLSANQKSLIARLVWYQEGYEQPSEEDLKRVTQTWQLEEEEEEETDMPFRQITEMTILTVQLIVEFAKGLPGFSKISQSDQITLLKASSSEVMMLRVARRYDAATDSVLFANNQAYTRDNYRKAGMSYVIEDLLHFCRCMYSMSMDNVHYALLTAIVIFSDRPGLEQPLLVEEIQRYYLKTLRVYILNQHSASPRCAVLFGKILGVLTELRTLGTQNSNMCISLKLKNRKLPPFLEEIWDVAEVSTTKLAPPTDVSLGDELHLDGEDVAMAHADALDDFDLDMLGDGDSPGPGFTPHDSAPYGALDMADFEFEQMFTDALGIDEYGG		44	83	6.889	15	61	1.721	99.49	136.41	16.7	35.1	5.97	3.89	3.73	3.17	36	
G(M)EV: EcR chimera: GAL4 DBD, Manduca sexta D domain, European corn borer E domain, VP16; SEQ ID NO:120-121 (protein) MQQLYVDFFSPAFIRYLFAWYCFFCRCSPCCLVLLLQGSATMKLLSSIEQACDICRLKKLKCSKEKPKCAKCLKNNWECRYSPKTKRSPLTRAHLTEVESRLERLEQLFLLIFPREDLDMILKMDSLQDIKALLTGLFVQDNVNKDAVTDRLASVETDMPLTLRQHRISATSSSEESSNKGQRQLTVSTRMRPECVVPESTCKNKRREKEAQREKDKLPVSTTTVDDHMPAIMQCDPPPPEAARIHEVVPRFLTEKLMEQNRLKNVTPLSANQKSLIARLVWYQDGYEQPSEEDLKRVTQTWQSADEEDEDSDMPFRQITEMTILTVQLIVEFAKGLPGFSKISQPDQITLLKACSSEVMMLRVARRYDAVSDSVLFANNQAYTRDNYRKAGMAYVIEDLLHFCRCMYSMSMDNVHYALLTAIVIFSDRPGLEQPQLVEEIQRYYLNTLRVYIMNQHSASPRCAVIYAKILSVLTELRTLGMQNSNMCISLKLKNRKLPPFLEEIWDVKLAPPTDVSLGDELHLDGEDVAMAHADALDDFDLDMLGDGDSPGPGFTPHDSAPYGALDMADFEFEQMFTDALGIDEYGG		63	119	6.965	58	139	0.028										highest fold induction
